Assay results reported in publication PMC7368380 (Journal of the American Chemical Society, 2018).

What was measured:
[1] = biological target: fluorescein-labeled, wild-type FusA leader peptide (Thermobifida fusca); experiment: fluorescence polarisation
solubility = format: physicochemical; settings: qualitative statement; prevented NMR
carboxypeptidase Y = biological target: T1, carboxypeptidase Y (Saccharomyces cerevisiae, UniProt P00729); experiment: carboxypeptidase Y digestion; format: in vitro ADME; settings: carboxypeptidase Y digestion for 18 h; analysis by MS (Fig. S11)
T1 sequence (P00729 112-532): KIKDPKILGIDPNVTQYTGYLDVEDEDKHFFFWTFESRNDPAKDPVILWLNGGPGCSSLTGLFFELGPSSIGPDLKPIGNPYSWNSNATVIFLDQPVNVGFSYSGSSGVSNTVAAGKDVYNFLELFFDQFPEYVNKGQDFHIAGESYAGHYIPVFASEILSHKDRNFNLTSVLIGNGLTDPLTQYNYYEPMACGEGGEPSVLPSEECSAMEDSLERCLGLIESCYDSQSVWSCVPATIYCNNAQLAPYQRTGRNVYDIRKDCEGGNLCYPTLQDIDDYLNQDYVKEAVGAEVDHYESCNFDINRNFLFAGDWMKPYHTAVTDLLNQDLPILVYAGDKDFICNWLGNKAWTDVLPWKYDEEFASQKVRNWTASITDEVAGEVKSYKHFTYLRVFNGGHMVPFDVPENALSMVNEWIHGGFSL

[2] = MALDI-TOF MS-based hydrogen-deuterium exchange assay; format: physicochemical; settings: H-D exchange, MALDI-TOF MS read-out (Fig. S10)

## FusE-D74A (natural protein)
[1]
  fold reduction of affinity against wild-type FusE: 8 fold

## FusE G31V variant (natural protein)
[1]
  fold reduction of leader peptide binding against wild-type FusE: 2 fold

## FusE-L78A (natural protein)
[1]
  fold reduction of affinity against wild-type FusE: 10 fold

## fusilassin
solubility
  solubility characteristics: poor
Carboxypeptidase Y
  outcome of carboxypeptidase Y digestion: vast majority of the fusilassin peptide remained intact
[2]
  time to full deuteration: ~ 60 min
